Test system: Saccharomyces cerevisiae
Assay: transcriptional activation domain activity (GFP:mCherry ratio, weighted mean of sorted bins, harmonized to initial dataset scale) (arbitrary fluorescence ratio units); higher = stronger transcriptional activation
Details: beta-estradiol 1 µM; induction time 4 h
How it was run: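 Activation activity, the read-weighted mean of bin median fluorescence averaged across barcodes, was linearly mapped onto the scale of the initial dataset. It was measured for barcoded protein tiles fused to an estradiol-inducible synthetic transcription factor at URA3 in GFP-reporter yeast diploids. Cultures diluted 1:5 into SC with 1 uM beta-estradiol were held 4 hours at 30 °C, sorted into 8 bins by GFP:mCherry ratio, and barcode-sequenced, and tiles under 50 reads were discarded.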

Sequence: YMCTCAWSVIWAQQLYTRGPLLQFIAKHTNYAGKPSMTFNQIVLLWVLYQIQG
- transcriptional activation domain activity: 49800

Sequence: MIKFSLLIFLIVFILDYLIFFCFFFFFLFFYFFIQFTLFMVCGGDLIYGFING
- transcriptional activation domain activity: 43200

Sequence: MRIRYEMSWGFLLSFLLSNGRRKIDHGTSSLRMTLGFLIAHRVYMMIILNFYT
- transcriptional activation domain activity: 47200

Sequence: RKKRERRERLKRGKKGGKKGDEDGAGDGEKGKGGKVKARVVIREDAEGLGGEG
- transcriptional activation domain activity: 30900

Sequence: LHGFDWSEEDDMSDGLPFLKTDPNNNGFFGDGSLLCILRSIGFKPENYTNSNV
- transcriptional activation domain activity: 50300

Sequence: GSKGAMRARAEERGEGGEGGEREEGREGRGERRGGGRGGEGRERERGGREGRG
- transcriptional activation domain activity: 25000

Sequence: YGFGGFLSVPLLFFIAFEFPRLHSLLYQLYLFVCVWSWAYYSTIIMFSCHFYP
- transcriptional activation domain activity: 57500

Sequence: AYMREMCVCLRDLFEALGCNKLTTLRIMLYNDAYCLGQSPTFRIRYLMSQLEP
- transcriptional activation domain activity: 49600

Sequence: RPAPAKSKARSSRKAVVEEPEIPQAQEEEEDVKPVIRGRKKRVSIAEPEKPKR
- transcriptional activation domain activity: 35300

Sequence: VQLSFYRNKIFLTILNYCSGLFVLLFFFYSLFRSVILQNSSLLMLYCACWIYI
- transcriptional activation domain activity: 60600

Sequence: TLQRIVLDFFTAPCFSDVIVADILTSFARVFGDLSTVFFTLVWGSCPHWIPPF
- transcriptional activation domain activity: 61200

Sequence: WSHPLRMTYFLVLVFFSCTWVGGVLRRGWGYLVLNAFCRHSYICGVCCIHYLS
- transcriptional activation domain activity: 18800

Sequence: LSLLSLCLGILHSSFKTCFVLLFVLIHICICTLFLIFSFFTPLLTIPTYVTLS
- transcriptional activation domain activity: 57500

Sequence: ESVRQHIVTETKNRVETYLAHCNPIVPHQRLTLLLARLLLRKLDFVTRLQWIL
- transcriptional activation domain activity: 50300

Sequence: DQKPIIDQKPLALLLEKLTVSEPPRGGTLGPAWMRERLEASGQMALWKRIVEK
- transcriptional activation domain activity: 34100

Sequence: MSTPFLANLLLIIWPTYYLLALSLHRALFQCTLSDFFSFFFFFFFFLFFLPFF
- transcriptional activation domain activity: 52800

Sequence: GPIFILLNYIFLAMLWLKNYRPHHLHILIRTRPYVYVTSNLPRLRFLFRHFLF
- transcriptional activation domain activity: 48300

Sequence: MSSSEDEPRPRKARSKLSPPASPDSRAQSAPAVPSPVKLVRAKPRARAKAASL
- transcriptional activation domain activity: 42700

Sequence: YDGGRLIVAIPFVCKVLEQAGRSTVFKPPNPWLMAVVRVLVELYKFAELKLNL
- transcriptional activation domain activity: 53800

Sequence: KIHLVNIAQVVVFFIYRLLYGLIPLFEIATCAYYPLLVSLWHLDYLLFYTVMF
- transcriptional activation domain activity: 62800

Sequence: MCISRYWICLGKGSVLGYHSFIICFYLGLVEMMGYPLFAFFSLLFIRFLLFLS
- transcriptional activation domain activity: 43700

Sequence: MPIPLRLPFPFCFWVRMGLLDVYYHTVGGLYGYVLGGGVVICWRWWCFSFFCL
- transcriptional activation domain activity: 55500

Sequence: MFCLRSWLPLLFIPTNASPAFIFLFFVCTYFLNRPCVYCSFLLLILFATSCYW
- transcriptional activation domain activity: 36100

Sequence: MSTAAVNEVTETLAATAISNPTNGAAANEATAASADEGRRLYIGNLAYATTEG
- transcriptional activation domain activity: 36000

Sequence: GPLSDEKSVKVSTFSELIGNDWQSMNFDLENNSREVTLNATSLLNENRLNQDS
- transcriptional activation domain activity: 48600

Sequence: EAEVTATGEKSSPARVVVLRARAADAGKLVSIAEIAKREIEKGTGGQGGGSGG
- transcriptional activation domain activity: 18100

Sequence: KIHLVNLSQVVVFFIHRILFGIIPLFEIETCAYFPLLISLWHLTYLLFYVVMF
- transcriptional activation domain activity: 80700

Sequence: MGVICIFICFAVGLSTIITNLLSWLLLFSIICLICAPIILFVEVPFLLRICPT
- transcriptional activation domain activity: 61400

Sequence: PIHAVYLFHLISSTFLLKYIYTYRFYFIFFLPFFLIWILCAAYWWLFFTHHIP
- transcriptional activation domain activity: 54600

Sequence: GDAPASFHSFCVVRVFMDVCWLGKRLCLKVLNMDPTCPWLMLLLLKATRLHLS
- transcriptional activation domain activity: 65300

Sequence: RGGGRADQGRRKSPARARSASASSQSSSRSRSASRDSDQSNRRSKATSPGGRG
- transcriptional activation domain activity: 32500

Sequence: DTNLPTNPEAIQLHGDEDIKAWLVLAKNLAINPSRILVVLHRAVRGTQTPALG
- transcriptional activation domain activity: 40400

Sequence: ILSRLSLCIGIIIAFVFCTIPLLTYHRDSPVLRCSLYNIIDNFFLPLYLFIVW
- transcriptional activation domain activity: 53400

Sequence: MLFFFSGLLFFLSLLSLVFLFALFFIRISTPTIRFRLWFFLLLLLLFSLFLLF
- transcriptional activation domain activity: 45500

Sequence: RPAAVLARQRERERARDARARAVRGAAPVAAAVAVRRVARHVCVACACAAAAA
- transcriptional activation domain activity: 60400

Sequence: GDGTPTLSWRHDLGGGEVRDLEVTVVKVHSGEVTLLSSATLKLVLVFHLSSTI
- transcriptional activation domain activity: 43400

Sequence: VVCRYYHLMMGRTFILLIFTQTLSGLVVYHGVCRSWEVLGCIAHLIKGGIFFF
- transcriptional activation domain activity: 55800

Sequence: SFVAYFSALWRGKQHRMTGYPVYDFFMGAELNPRMFGILDFKMFFEVRMPWYI
- transcriptional activation domain activity: 51000

Sequence: MPLPLIFVYLSGQMLSFLGSLFGVYMYFASLVLNYLGLFSSLRLRLWSFFLTA
- transcriptional activation domain activity: 66200

Sequence: EDAEATPAAAVEAEDDAMVVDSEEPKKKSKKDKKEKKDKKRKAAETTEAETAN
- transcriptional activation domain activity: 16400

Sequence: WVMYVIFITVGWYAMVTGQSIVLYSRLHLVVNSIKVLRFVLILICVDVVILHV
- transcriptional activation domain activity: 67500

Sequence: SPTRAYVGANTNSKNASFNDADLLSSSYWIKAYNDHLFSVSESDETSPMNSEL
- transcriptional activation domain activity: 38800

Sequence: MTTWHKVFFFFRNLSFFCLFCLSCFFFLLLFLMKLETTNKVSILYLSLTLILF
- transcriptional activation domain activity: 43700

Sequence: KYAYGCDELIFNPLVHWWKMGPINKQLRTFVWSDAPVHYKVTMLSYMFSYYGI
- transcriptional activation domain activity: 50100

Sequence: RSAPGGRAGGRDGGSSSSSSDSSDEERETDGPVRKRRRTATSGARKAAPKSRP
- transcriptional activation domain activity: 29200

Sequence: ADSDRHKKHKSSSSSSKSRHHDRDDDRDDNDKHSRRSHHKSSSSRHDRDRERG
- transcriptional activation domain activity: 46300

Sequence: KGAKDEKKEDAKGGEEGKDATKQREKEESKGGKLESTPSKEFSDGKEQQEKKG
- transcriptional activation domain activity: 40400

Sequence: PLLRVLQICSFKDLMFDVPHLHRFISNAELLRTLNHLDVSFSSYSVFLQLVGF
- transcriptional activation domain activity: 70500

Sequence: LLCKKVVAFFQLLSESHVSGMRRLGVTQELLSLVTGLAHYLKLLIRICLQGAL
- transcriptional activation domain activity: 72100

Sequence: TGWCCLLMSIFSFNHAVLFVAFIFPNGVSCRKLLWNAMIGYVISLECSNLLLL
- transcriptional activation domain activity: 60800

Sequence: PFSNFFSNLFLYLFFDLFSNFFFIFSLPFILFHIISSIFNLNFNLLLLLIHLF
- transcriptional activation domain activity: 65800

Sequence: RLRKDVGPFSPDDIQKPSLTWIHVRRNNLLLMMAPVRSYTWKAAQTLGEIFGA
- transcriptional activation domain activity: 28000

Sequence: MADATATGSTPPQAPLPEPKRHAACDECRLRKLKCSGTRPACERCAREHIACV
- transcriptional activation domain activity: 40100

Sequence: SMLSYHLWMVMHAETSVESQDFHIYRKVAKRRGETFTNSYDLGKIRNLELFFN
- transcriptional activation domain activity: 61200

Sequence: MHTSRAAWIHSKPADKAEAVAPHPHIAESGVGHSSHVGTHPKLSGDPNSPWRE
- transcriptional activation domain activity: 45900

Sequence: MLQHSWCFIFRLFDPLFFFFFFFFSTWNAIVGRWVFSLSFEPFFVRLLHLILY
- transcriptional activation domain activity: 37700

Sequence: GLAIIRWQRGFRDYDNVTFKRFDYEVGMSILGWAFHYFPFFLMARQLFLHHYL
- transcriptional activation domain activity: 52400

Sequence: KAQDDKEADDSPKKKPAKRSRKKAAADDGDDDEEEAQPAKKKAKGGRKSKAAA
- transcriptional activation domain activity: 39400

Sequence: MDKFRVLRLVLFRWWLFALCLIRFEVMEALLIHSPRFFEKLILVRTNLYLLCI
- transcriptional activation domain activity: 50100

Sequence: RFGGSARGGGTGVEPPAKGKKGGGEEREGGEGRKGKGGRGPGTRERKGKERER
- transcriptional activation domain activity: < 6570

Sequence: PAGDNKAPRKEGARANNRPRDNDAPRGPRYDRTPRDGDAASRAPRGARAPRGA
- transcriptional activation domain activity: 41700

Sequence: EEEVEEKKAKKEKKSKEDKEDKKAKKDKKSKKDKSKDADEDVERTNGHSTPAA
- transcriptional activation domain activity: 26100

Sequence: MLINKLIVLRELCYSDDAAKQIVMYVISLFLSLIFYSFLPCLGLICLSILVPS
- transcriptional activation domain activity: 49100

Sequence: VSFRLLVYALVSHVIFGIVLLIDCFYAFPGWHCSLLAFLINFNILFSASIFFC
- transcriptional activation domain activity: 55200

Sequence: HWSYARNANMIVNFFYKNIMGIGVLWWFQIYCGWSTTYVFEYTYLLFWNVFWS
- transcriptional activation domain activity: 56200

Sequence: TNAENSSQPSLAQWAKGREGVLMISSDVISNVQISIGKSRLASLLISLCLQRM
- transcriptional activation domain activity: 47300

Sequence: EPEQVEAVVEVEEKQEEVKPVEEEIKVEQPVVEQQQEEPTPVVSQVPASTPLP
- transcriptional activation domain activity: < 6570

Sequence: YVLATCYPKWVYEVLMATRGRIWCVLILLAYPFFAVGVGVIVCVMGLLVAAWI
- transcriptional activation domain activity: 35800

Sequence: LQAAAALESNTADGEDTNMETEEDKSGADGRSVYVGNVGYRFAVLLASNQVDY
- transcriptional activation domain activity: 36600

Sequence: EQDNVDSTQQSSTGRVKRSREDSASGERLRSTSRSRSKSPSGRHKRSRRHRRS
- transcriptional activation domain activity: 36100

Sequence: NITKILVMKFFTIDFTFTIMYITGLLITFLYYLVGYFQMNVKLLGSDRAYFAF
- transcriptional activation domain activity: 35700

Sequence: VCVLHLIVIALSLTDLILPSLIWGLTAIFLGVYAIVQKLSIALIVQPQLFGTL
- transcriptional activation domain activity: 65700

Sequence: MYDFFLFLSFLPFPSPSLLCFLILFSFIYLLLFHFYIYIYICLFLSFYIHAFV
- transcriptional activation domain activity: 10600

Sequence: VNFLGLMYAPLFVLSNFGAANCQHNALLFKFNMHAFFLCFDLFLLYKTWVVAQ
- transcriptional activation domain activity: 49900

Sequence: WLAHSKKKTCDVCKHPYSFTKVYATDMPTRLPPVLLLRRVAQQSFFAMIFAVR
- transcriptional activation domain activity: 35900

Sequence: MPFRNCFACIICCSWLLYLDVLLILSMYSIYFMGGFARYLFWFIYWFFGIMEL
- transcriptional activation domain activity: 44800

Sequence: MLLLLIIRKVLILGKPFFINHLHILLYPDTVLSPFLLLSFPLTLPLSLLLLLL
- transcriptional activation domain activity: 106000

Sequence: DMDEEEGGAPAKPVGACARCKNLKVKCEFKTETDPCKRCFNGRHDCVTPGRKK
- transcriptional activation domain activity: 28500

Sequence: EQGQNLQGLLEFMCFEVGPMFLDLIIAFVYVYTLFDLYMSMILLFVGLAYVWI
- transcriptional activation domain activity: 33200

Sequence: SVASMNSNYLLPVNSHGYKHISNLDELDDLLSLTYSDNNLLSASNNSDFNNSN
- transcriptional activation domain activity: 88400

Sequence: MDEEVEERNKAFEWTSYSWGKMQIIRYWSRCHAIVVLYTSKRRMWLLVCWLSA
- transcriptional activation domain activity: 60400

Sequence: FARVLLNGWFRTFHKVVSTAECVAWLVLFLPYAIGVLLVVRCVLGFHDIPKPK
- transcriptional activation domain activity: 45500

Sequence: LKNLMATIGLTRKVLFTGRQLEFYLAAVKLLATKDVFVKWTAIAKNFFMIVWV
- transcriptional activation domain activity: 55500
